The target in this assay is MARY-MVP (protamine-tagged human major vault protein). As to the kind of experiment: dynamic light scattering; DLS radii at varying MARY-MVP (0 to 7.3 nM) with INT-CFP fixed at 8.3 nM, pH 6.5 phosphate buffer, 50 mM NaCl, 1.5 mM MgCl2, after concentration.

Concentration of the transition from monomer to VLP data for one substance are collected here from paper PMC12786146.

Substance “MARY-MVP (protamine-tagged human major vault protein)” returned a concentration of the transition from monomer to VLP of 5 nM.
